# Laboratory results published in PMC8865451.
# Target: cs130Fc (human) (UniProt P40189)
# Test: SPR
substance,measurement,value
hyper-IL-6 (HIL-6),Kd,0.059 nM
